Test results as given in publication PMC12234435, “Monoclonal antibody neutralizes Staphylococcus aureus serine protease-like protein B (SplB)-induced pathology” (Infection and Immunity, 2025).

Columns and labels:
[1] = target: T1, recombinant tag-free Staphylococcus aureus serine protease-like protein B (SplB) (Staphylococcus aureus (strain NCTC 8325 …, UniProt Q2FXC3)); test: MST; RED-NHS-labelled tag-free SplB (40 nM) constant, α-SplB1 serially diluted from 3.42 µM to 0.209 nM; MST buffer with 0.05% Tween-20; RT; Monolith NT.115, 100% excitation power, 40% MST power; settings: both partners purified
T1 construct: serine protease-like protein B (SplB) of Staphylococcus aureus, tag-free; probably the mature protease without signal peptide (surmised); In the MST assay it was labelled with RED-NHS dye; in one dot blot and in the Western blot it was heat-denatured; also called tag-free SplB; recombinant SplB

[2] = target: T2, native SplB in the extracellular proteins of S. aureus D29 (Staphylococcus aureus D29 (USA300 …, UniProt Q2FFT0, strain)); test: Western blot; 5 µg extracellular proteins of S. aureus NCTC 8325-4 and D29 denatured, SDS-PAGE, blotted on PVDF; α-SplB1 300 ng/mL overnight at 4°C as primary antibody; settings: one partner purified
T2 construct: serine protease-like protein B (SplB), secreted by S. aureus D29, a community-acquired USA300 derivative (CC8); no identifier printed for this strain's SplB; Denatured, separated by SDS-PAGE and blotted; also called SplB in the ECP preparation

[3] = target: T3, recombinant tag-free Staphylococcus aureus serine protease-like protein F (SplF) (Staphylococcus aureus (strain NCTC 8325 …, UniProt Q2FXC8)); test: ELISA; indirect ELISA for cross-reactivity with recombinant tag-free SplA, SplD, SplE and SplF; settings: both partners purified
T3 construct: serine protease-like protein F (SplF) of Staphylococcus aureus, tag-free

[4] = target: T4, recombinant tag-free Staphylococcus aureus serine protease-like protein D (SplD) (Staphylococcus aureus (strain NCTC 8325 …, UniProt Q2FXC5)); test: as above; settings: both partners purified
T4 construct: serine protease-like protein D (SplD) of Staphylococcus aureus, tag-free

[5] = target: T5, recombinant tag-free Staphylococcus aureus serine protease-like protein E (SplE) (Staphylococcus aureus (strain NCTC 8325 …, UniProt Q2FXC7)); test: as above; settings: both partners purified
T5 construct: serine protease-like protein E (SplE) of Staphylococcus aureus, tag-free

[6] = target: T6, recombinant tag-free Staphylococcus aureus serine protease-like protein A (SplA) (Staphylococcus aureus NCTC 8325 (strain …, UniProt Q2FXC2)); test: as above; settings: both partners purified
T6 construct: serine protease-like protein A (SplA) of Staphylococcus aureus, tag-free

[7] = target: T1, recombinant tag-free Staphylococcus …; test: cell-based or functional assay

B1: murine anti-SplB monoclonal antibody α-SplB1 (antibody, V domains shown)
VH: EVQLQESGPGILQSSQTLSLTCSFSGFSLNSVGMGVTWIRQPSGKGLEWLAHIYWDDDKLYNSSLKSRLTISKDTSRNQVFLNITSVVSADTATYYCARRVYGISYDYWYFDVWGTGTAVTVSS
VL: DILMTQSPATLSVTPGDRVSLSCRASQSISDYLHWYQQKSHESPRLLIKYASQSISGIPSRFSGSGSGSDFTLSINSVEPEDVGVYYCQNGHIFPPTFGAGTKLELK
notes: variable region of the heavy chain; mouse IgG1 heavy chain constant region (isotyping: IgG1 subclass); variable region of the light chain; mouse kappa light chain constant region (isotyping: κ light chains); IgG1, kappa; Raised against SplB-Strep; also called α-SplB1 mAb; anti-SplB mAb; source: hybridoma supernatant (C57BL/6N splenocytes fused with P3X63Ag8.653), purified (Protein-G-Sepharose)
- Kd [1]: 37.9 nM
- binding result [2]: binds
- binding result [3]: no binding
- binding result [4]: no binding
- binding result [5]: no binding
- binding result [6]: no binding
- neutralisation of the cleavage of the synthetic substrate Ac-VEID-MCA by 2.5 µM tag-free SplB, pre-incubated with α-SplB1 at molar ratios 1:1 to 1:8 (SplB:α-SplB1), 37°C, 1 h [7]: 66 % neutralised (at 1:1 molar ratio; complete at 1:2)
